# Measured values: the supplement of paper PMC12042874
# ± gives the uncertainty stated by the source.
# Test: amyloid nucleation score (Sup35N fusion, yeast selection) (log enrichment); library NNK1; higher = more nucleation; inactive = no reads after selection
# Outline: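 The nucleation score is a DiMSum log enrichment of output over input reads, centred on the mode score of non-aggregating sequences. Sequences under 100 input reads were excluded, and reads came from Illumina sequencing of plasmid inserts. Psi-negative yeast expressing Sup35N fused to peptides of 20 random codons were induced with 100 μM copper sulfate for 24 hours and grown 7 days at 30°C on medium lacking adenine and uracil. Random libraries had three technical output replicates.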
row,Substance,amyloid nucleation score
1,CRKVITRVGSVTVTGGFYLI,-0.374 ± 0.67
2,KFRRLQARFASMMSSTFT,1.82 ± 0.14
3,PLCEKSGCSLNFDEERQTLW,1.43 ± 0.51
4,VENTPSCSDISSDLMGREIH,-0.87 ± 0.35
5,IATGMWLYVSLVTPQHSLVN,0.101 ± 0.49
6,YLDRSRLMIKCHVHVKYVYY,7.92 ± 0.048
7,LPGMVSL,0.33 ± 0.42
8,YHPRTSYFCDVVFRGPERGN,1.87 ± 0.69
9,YFPGVSRGQVDEPVYLCCQR,0.068 ± 0.57
10,ISWVPDAVNFFACMHW,0.094 ± 0.51
11,SDLDVRAWQSLVSWIYRFPS,0.18 ± 0.37
12,FMSICPSTNGRCACRWLRM,0.857 ± 0.98
13,LVLIRKLVWGSGSDTLWVRR,inactive
14,TVVTYVRNNFKEVHSCVEVS,-0.607 ± 0.47
15,SGVSVVEGYHRSRVACRSVM,-0.158 ± 0.52
16,FINRGAGPTLSRGQSRYNSA,0.011 ± 0.3
17,LEHHCAHCIGEVTINIKRFP,0.306 ± 0.41
18,PTYTGVLSLN,0.341 ± 0.56
19,TRVEFEQGVVFGELYSVFRV,0.351 ± 0.39
20,SAGSVADRGCLFSLRRASKC,0.851 ± 0.78
21,VRCLGWVDHERVRDLCIHSG,-0.414 ± 0.31
22,ESVIFFSCTYSSMMVSWTSR,0.382 ± 1.4
23,GLFFNNKYA,0.54 ± 0.84
24,GVRMLGFVRV,0.261 ± 0.2
25,INVFREAYIIYCRCEGSGGD,7.507 ± 0.059
26,WIVCCMWVYVLSLQL,-1.06 ± 0.4

row,Substance,amyloid nucleation score
1,LNCWLNRSVYVRLNRQDGKT,2.5 ± 0.31
2,TFLTCYRPGPIDNSWRIVSM,1.1 ± 0.41
3,DSIGVTH,-0.002 ± 0.41
4,TSPTYAYCYCLSTNRRQKCL,-0.957 ± 1.1
5,LLWTSNIIYMSFAVRNKSVR,0.59 ± 0.32
6,WIFQY,1.43 ± 0.72
7,TSDGHFSSQVDSVDESKVGE,-0.534 ± 0.46
8,YCYEQVDSV,0.154 ± 0.42
9,YSTYLSS,1.4 ± 0.66
10,KIVSEFCL,0.36 ± 0.36
11,GSFYSGI,1.6 ± 0.76
12,RRVSLH,0.416 ± 0.6
13,SWFWHPYFCHRRIGSMGDGV,-0.017 ± 0.58
14,ASDMSCMQSNSYFNLWTYTM,1.32 ± 0.4
15,CNSLTLFRWYFNMVGNIQAN,-0.143 ± 0.37
16,FRSELMFSVLPFLGASSVAC,1.44 ± 0.69
17,ELVISMGRLWVG,2.02 ± 0.17
18,DIRLIPCMSMVC,-1.38 ± 1.1
19,ETSSPLLEGG,0.554 ± 0.55
20,SNVVNFDNNEDYLDTCRYLI,0.734 ± 0.97
21,GLVFWNIYCRNFYLL,6.83 ± 0.078
22,VLGRITAIFSVCGLVAVRDN,5.63 ± 0.076
23,RVIILMFTHRTCNS,-1.07 ± 2.7
24,LCCYAVYGLCLMHTYNWGCD,0.564 ± 0.73
25,VINCNWKFSFFFALVNEGGV,6.554 ± 0.048
26,IWCHRSGRLFPSMLLKYYRD,-0.766 ± 1.7

row,Substance,amyloid nucleation score
1,YFRSSGGAFFGNLDVCGNYV,0.124 ± 0.48
2,CIIDKFGVLIV,inactive
3,CLCLKVFLQKVVRGCNR,1.01 ± 0.29
4,CDINLRKDTGISHLNGLFNA,0.755 ± 0.43
5,RRYRVLANISS,0.66 ± 0.49
6,SIYIVNSLALVGMGLMSNYG,2.81 ± 0.23
7,REDKYHIVVT,-0.275 ± 0.28
8,MRKVYNEWLKTNYYKHMNRV,0.452 ± 0.51
9,TSNNLFKRALVGDYNKVAYR,0.572 ± 0.75
10,FLPLMIASVSWRL,0.455 ± 0.64
11,GTRVR,1.51 ± 0.48
12,SSPTLLSWVKW,0.99 ± 0.58
13,FSRNAAYMIICSTGRRKFWH,3.75 ± 0.074
14,DFVLIIFFCPCRYCSSTHTT,3.32 ± 0.2
15,VICSHLVSITYYLY,3.59 ± 0.057
16,IGGRGVLKSVSTLTCVLWTW,0.473 ± 0.92
17,LSTDQLVSSLKCR,0.404 ± 0.41
18,QNTSEYSLRRERSR,-0.341 ± 0.5
19,EFFRVMPGNT,3.68 ± 0.13
20,YYWRPIQVVCLLASCKRTWR,7.749 ± 0.064
21,LRWFPEAFNGAERESLASNL,-0.102 ± 0.52
22,NCIVFVSPASTKDCKWGAAS,1.66 ± 0.35
23,RGDLTPDARSYGPCSIHRWR,inactive
24,SFSRFVVMMKGIRAGKSSHT,0.156 ± 0.72
25,TIGPSGNLEGCVLSVGASNI,-1.35 ± 1.2
26,TASIDEQHHWTRQY,0.32 ± 0.36
